Experimental data taken from publication PMC9352680, “A comprehensive thermodynamic model for RNA binding by the Saccharomyces cerevisiae Pumilio protein PUF4”.

T1: PUF4 RNA-binding domain (Saccharomyces cerevisiae, UniProt P25339 537-888)
T1 sequence: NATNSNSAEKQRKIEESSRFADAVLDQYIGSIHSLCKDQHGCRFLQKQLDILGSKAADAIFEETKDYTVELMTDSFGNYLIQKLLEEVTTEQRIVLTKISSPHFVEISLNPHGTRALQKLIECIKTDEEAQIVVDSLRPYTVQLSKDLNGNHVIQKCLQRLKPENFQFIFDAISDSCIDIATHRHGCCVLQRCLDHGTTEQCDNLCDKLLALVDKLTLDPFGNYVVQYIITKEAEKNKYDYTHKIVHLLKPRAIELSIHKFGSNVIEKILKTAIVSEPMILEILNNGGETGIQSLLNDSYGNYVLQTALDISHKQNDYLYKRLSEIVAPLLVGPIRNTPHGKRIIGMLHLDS


Biological target: T1, PUF4 RNA-binding domain
Assay: Mg; RNA-MaP; 20 mM Na-HEPES pH 7.4, 30 mM KOAc, 0.75 mM MgCl2, 0.1% Tween-20, 5% glycerol, 0.1 mg/mL BSA, 2 mM DTT; 25 C; 0.0125-409.6 nM protein
Conditions: tags: N-His6-TEV cleaved; C-SNAP kept, Cy3B-labelled; label: tethered on chip by stalled RNA polymerase

Row | Binder | Kd
1 | UCUCUUUAUAUAUUAUUAGCUCUCUU (ssRNA) [Id_ii_S1_P5E.3_K5.2_C5.2_[C-2T]_[T-1A]_H5.2_A5.1_F5.1_T5.2_[T11G]_[A12C]] | 13.7 nM
2 | UCUCUUUGUAUUGUAUCUCUU (ssRNA) [Ib_S1_P4E.1_K4.1_C4.1_H4.1_A4.1_[A6T]_[T7G]_F4.1_T4.1] | 7.79 nM
3 | UCUCUUUAUAUAUUAUUACGUCUCUU (ssRNA) [Id_ii_S1_P5E.3_K5.2_C5.2_[C-2T]_[T-1A]_H5.2_A5.1_F5.1_T5.2_[T11C]_[A12G]] | 18.1 nM
4 | UCUCUUAUUAUAUUAUUAGCUCUCUU (ssRNA) [Id_ii_S1_P5E.3_K5.2_C5.2_[C-2A]_H5.2_A5.1_F5.1_T5.2_[T11G]_[A12C]] | 208 nM
5 | UCUCUUUUUAUAUUAUUAACUCUCUU (ssRNA) [Id_ii_S1_P5E.3_K5.2_C5.2_[C-2T]_H5.2_A5.1_F5.1_T5.2_[T11A]_[A12C]] | 524 nM
6 | UCUCUUUUUAUAUUAUUAAUUCUCUU (ssRNA) [Id_ii_S1_P5E.3_K5.2_C5.2_[C-2T]_H5.2_A5.1_F5.1_T5.2_[T11A]_[A12T]] | 457 nM
7 | UCUCUUUCUAUAUUAUUAUUUCUCUU (ssRNA) [Id_ii_S1_P5E.3_K5.2_C5.2_[C-2T]_[T-1C]_H5.2_A5.1_F5.1_T5.2_[A12T]] | 402 nM
8 | UCUCUUAUUAUAUUAUUACGUCUCUU (ssRNA) [Id_ii_S1_P5E.3_K5.2_C5.2_[C-2A]_H5.2_A5.1_F5.1_T5.2_[T11C]_[A12G]] | 126 nM
9 | UCUCUUUAUAUAUUAUUAAAUCUCUU (ssRNA) [Id_ii_S1_P5E.3_K5.2_C5.2_[C-2T]_[T-1A]_H5.2_A5.1_F5.1_T5.2_[T11A]] | 25.4 nM
10 | UCUCUUAUUAUAUUAUUAACUCUCUU (ssRNA) [Id_ii_S1_P5E.3_K5.2_C5.2_[C-2A]_H5.2_A5.1_F5.1_T5.2_[T11A]_[A12C]] | 159 nM
11 | UCUCUUACUAUAUUAUUAAAUCUCUU (ssRNA) [Id_ii_S1_P5E.3_K5.2_C5.2_[C-2A]_[T-1C]_H5.2_A5.1_F5.1_T5.2_[T11A]] | 626 nM
12 | UCUCUUUUUAUAUUAUUAUUUCUCUU (ssRNA) [Id_ii_S1_P5E.3_K5.2_C5.2_[C-2T]_H5.2_A5.1_F5.1_T5.2_[A12T]] | 181 nM
13 | UCUCUUACUAUAUUAUUAUCUCUCUU (ssRNA) [Id_ii_S1_P5E.3_K5.2_C5.2_[C-2A]_[T-1C]_H5.2_A5.1_F5.1_T5.2_[A12C]] | 536 nM
14 | UCUCUUCGUAUAUUAUUAGCUCUCUU (ssRNA) [Id_ii_S1_P5E.3_K5.2_C5.2_[T-1G]_H5.2_A5.1_F5.1_T5.2_[T11G]_[A12C]] | 25.6 nM
15 | UCUCUUUAUAUAUUAUUAUCUCUCUU (ssRNA) [Id_ii_S1_P5E.3_K5.2_C5.2_[C-2T]_[T-1A]_H5.2_A5.1_F5.1_T5.2_[A12C]] | 21 nM
16 | UCUCUUCCUAUAUUAUUACAUCUCUU (ssRNA) [Id_ii_S1_P5E.3_K5.2_C5.2_[T-1C]_H5.2_A5.1_F5.1_T5.2_[T11C]] | 592 nM
17 | UCUCUUCCUAUAUUAUUAACUCUCUU (ssRNA) [Id_ii_S1_P5E.3_K5.2_C5.2_[T-1C]_H5.2_A5.1_F5.1_T5.2_[T11A]_[A12C]] | 620 nM
18 | UCUCUUCGUAUAUUAUUAAAUCUCUU (ssRNA) [Id_ii_S1_P5E.3_K5.2_C5.2_[T-1G]_H5.2_A5.1_F5.1_T5.2_[T11A]] | 38.8 nM
19 | UCUCUUUAUAUAUUAUUACCUCUCUU (ssRNA) [Id_ii_S1_P5E.3_K5.2_C5.2_[C-2T]_[T-1A]_H5.2_A5.1_F5.1_T5.2_[T11C]_[A12C]] | 14.1 nM

Row | Binder | Kd
20 | UCUCUUAAUAUAUUAUUACCUCUCUU (ssRNA) [Id_ii_S1_P5E.3_K5.2_C5.2_[C-2A]_[T-1A]_H5.2_A5.1_F5.1_T5.2_[T11C]_[A12C]] | 668 nM
21 | UCUCUUUGUAUUAUAUCUCUU (ssRNA) [Ib_S1_P4E.1_K4.1_C4.1_H4.1_A4.1_[A6T]_[T7A]_F4.1_T4.1] | 2.13 nM
22 | UCUCUUCCUAUAUUAUUACUUCUCUU (ssRNA) [Id_ii_S1_P5E.3_K5.2_C5.2_[T-1C]_H5.2_A5.1_F5.1_T5.2_[T11C]_[A12T]] | 456 nM
23 | UCUCUUCCUAUAUUAUUACGUCUCUU (ssRNA) [Id_ii_S1_P5E.3_K5.2_C5.2_[T-1C]_H5.2_A5.1_F5.1_T5.2_[T11C]_[A12G]] | 746 nM
24 | UCUCUUUAUAUAUUAUUAACUCUCUU (ssRNA) [Id_ii_S1_P5E.3_K5.2_C5.2_[C-2T]_[T-1A]_H5.2_A5.1_F5.1_T5.2_[T11A]_[A12C]] | 15.9 nM
25 | UCUCUUUUUAUAUUAUUACAUCUCUU (ssRNA) [Id_ii_S1_P5E.3_K5.2_C5.2_[C-2T]_H5.2_A5.1_F5.1_T5.2_[T11C]] | 497 nM
26 | UCUCUUACUAUAUUAUUACUUCUCUU (ssRNA) [Id_ii_S1_P5E.3_K5.2_C5.2_[C-2A]_[T-1C]_H5.2_A5.1_F5.1_T5.2_[T11C]_[A12T]] | 486 nM
27 | UCUCUUAUUAUAUUAUUACUUCUCUU (ssRNA) [Id_ii_S1_P5E.3_K5.2_C5.2_[C-2A]_H5.2_A5.1_F5.1_T5.2_[T11C]_[A12T]] | 175 nM
28 | UCUCUUUAUAUAUUAUUACUUCUCUU (ssRNA) [Id_ii_S1_P5E.3_K5.2_C5.2_[C-2T]_[T-1A]_H5.2_A5.1_F5.1_T5.2_[T11C]_[A12T]] | 13.3 nM
29 | UCUCUUCGUAUAUUAUUAGUUCUCUU (ssRNA) [Id_ii_S1_P5E.3_K5.2_C5.2_[T-1G]_H5.2_A5.1_F5.1_T5.2_[T11G]_[A12T]] | 25.4 nM
30 | UCUCUUCCUAUAUUAUUAAAUCUCUU (ssRNA) [Id_ii_S1_P5E.3_K5.2_C5.2_[T-1C]_H5.2_A5.1_F5.1_T5.2_[T11A]] | 683 nM
31 | UCUCUUUUUAUAUUAUUACUUCUCUU (ssRNA) [Id_ii_S1_P5E.3_K5.2_C5.2_[C-2T]_H5.2_A5.1_F5.1_T5.2_[T11C]_[A12T]] | 414 nM
32 | UCUCUUCGUAUAUUAUUAUCUCUCUU (ssRNA) [Id_ii_S1_P5E.3_K5.2_C5.2_[T-1G]_H5.2_A5.1_F5.1_T5.2_[A12C]] | 18.4 nM
33 | UCUCUUACUAUAUUAUUACCUCUCUU (ssRNA) [Id_ii_S1_P5E.3_K5.2_C5.2_[C-2A]_[T-1C]_H5.2_A5.1_F5.1_T5.2_[T11C]_[A12C]] | 520 nM
34 | UCUCUUAAUAUAUUAUUACAUCUCUU (ssRNA) [Id_ii_S1_P5E.3_K5.2_C5.2_[C-2A]_[T-1A]_H5.2_A5.1_F5.1_T5.2_[T11C]] | 601 nM
35 | UCUCUUAAUAUAUUAUUACUUCUCUU (ssRNA) [Id_ii_S1_P5E.3_K5.2_C5.2_[C-2A]_[T-1A]_H5.2_A5.1_F5.1_T5.2_[T11C]_[A12T]] | 552 nM
36 | UCUCUUCGUAUAUUAUUAAUUCUCUU (ssRNA) [Id_ii_S1_P5E.3_K5.2_C5.2_[T-1G]_H5.2_A5.1_F5.1_T5.2_[T11A]_[A12T]] | 26.5 nM
37 | UCUCUUUAUAUAUUAUUAUUUCUCUU (ssRNA) [Id_ii_S1_P5E.3_K5.2_C5.2_[C-2T]_[T-1A]_H5.2_A5.1_F5.1_T5.2_[A12T]] | 17.6 nM
38 | UCUCUUAUUAUAUUAUUAUUUCUCUU (ssRNA) [Id_ii_S1_P5E.3_K5.2_C5.2_[C-2A]_H5.2_A5.1_F5.1_T5.2_[A12T]] | 160 nM

Row | Binder | Kd
39 | UCUCUUACUAUAUUAUUAAUUCUCUU (ssRNA) [Id_ii_S1_P5E.3_K5.2_C5.2_[C-2A]_[T-1C]_H5.2_A5.1_F5.1_T5.2_[T11A]_[A12T]] | 453 nM
40 | UCUCUUUGUAUUCUAUCUCUU (ssRNA) [Ib_S1_P4E.1_K4.1_C4.1_H4.1_A4.1_[A6T]_[T7C]_F4.1_T4.1] | 2.85 nM
41 | UCUCUUUAUAUAUUAUUAGUUCUCUU (ssRNA) [Id_ii_S1_P5E.3_K5.2_C5.2_[C-2T]_[T-1A]_H5.2_A5.1_F5.1_T5.2_[T11G]_[A12T]] | 22.2 nM
42 | UCUCUUACUAUAUUAUUACAUCUCUU (ssRNA) [Id_ii_S1_P5E.3_K5.2_C5.2_[C-2A]_[T-1C]_H5.2_A5.1_F5.1_T5.2_[T11C]] | 424 nM
43 | UCUCUUUUUAUAUUAUUAGCUCUCUU (ssRNA) [Id_ii_S1_P5E.3_K5.2_C5.2_[C-2T]_H5.2_A5.1_F5.1_T5.2_[T11G]_[A12C]] | 160 nM
44 | UCUCUUUUUAUAUUAUUACGUCUCUU (ssRNA) [Id_ii_S1_P5E.3_K5.2_C5.2_[C-2T]_H5.2_A5.1_F5.1_T5.2_[T11C]_[A12G]] | 434 nM
45 | UCUCUUUUUAUAUUAUUAUCUCUCUU (ssRNA) [Id_ii_S1_P5E.3_K5.2_C5.2_[C-2T]_H5.2_A5.1_F5.1_T5.2_[A12C]] | 550 nM
46 | UCUCUUCGUAUAUUAUUAUUUCUCUU (ssRNA) [Id_ii_S1_P5E.3_K5.2_C5.2_[T-1G]_H5.2_A5.1_F5.1_T5.2_[A12T]] | 26.6 nM
47 | UCUCUUUGUAUUACCAUCUCUU (ssRNA) [Ib_S1_P5E.1_K5.1_C5.1_H5.1_A5.1_F5.1_[T8C]_[T9C]_T5.1] | 287 nM
48 | UCUCUUAUUAUAUUAUUACCUCUCUU (ssRNA) [Id_ii_S1_P5E.3_K5.2_C5.2_[C-2A]_H5.2_A5.1_F5.1_T5.2_[T11C]_[A12C]] | 203 nM
49 | UCUCUUAUUAUAUUAUUAUCUCUCUU (ssRNA) [Id_ii_S1_P5E.3_K5.2_C5.2_[C-2A]_H5.2_A5.1_F5.1_T5.2_[A12C]] | 63.5 nM
50 | UCUCUUACUAUAUUAUUAACUCUCUU (ssRNA) [Id_ii_S1_P5E.3_K5.2_C5.2_[C-2A]_[T-1C]_H5.2_A5.1_F5.1_T5.2_[T11A]_[A12C]] | 706 nM
51 | UCUCUUCCUAUAUUAUUAAUUCUCUU (ssRNA) [Id_ii_S1_P5E.3_K5.2_C5.2_[T-1C]_H5.2_A5.1_F5.1_T5.2_[T11A]_[A12T]] | 779 nM
52 | UCUCUUUAUAUAUUAUUAAUUCUCUU (ssRNA) [Id_ii_S1_P5E.3_K5.2_C5.2_[C-2T]_[T-1A]_H5.2_A5.1_F5.1_T5.2_[T11A]_[A12T]] | 21 nM
53 | UCUCUUCCUAUAUUAUUAAGUCUCUU (ssRNA) [Id_ii_S1_P5E.3_K5.2_C5.2_[T-1C]_H5.2_A5.1_F5.1_T5.2_[T11A]_[A12G]] | 971 nM
54 | UCUCUUUGUAUUAUGAUCUCUU (ssRNA) [Ia_S1_P5E.1_K5.1_C5.1_H5.1_A5.1_F5.1_[T9G]_T5.1] | 15.3 nM
55 | UCUCUUCGUAUAUUAUUAACUCUCUU (ssRNA) [Id_ii_S1_P5E.3_K5.2_C5.2_[T-1G]_H5.2_A5.1_F5.1_T5.2_[T11A]_[A12C]] | 27.7 nM
56 | UCUCUUAUUAUAUUAUUACAUCUCUU (ssRNA) [Id_ii_S1_P5E.3_K5.2_C5.2_[C-2A]_H5.2_A5.1_F5.1_T5.2_[T11C]] | 128 nM
57 | UCUCUUUGUAUCAUAUCUCUU (ssRNA) [Ic_S1_P4E.1_K4.1_C4.1_H4.1_A4.1_[A6C]_[T7A]_F4.1_T4.1] | 1.04 nM
